# US10752921B2, “Enzymes and methods for styrene synthesis” (Phytogene, Inc., priority 2012, dated 2020)
# B1: K190E (protein)
# chain: MRKLNPALEFRDFIQVLKDEDDLIEITEEIDPNLEVGAIMRKAYESHLPAPLFKNLKGASKDLFSILGCPAGLRSKEKGDHGRIAHHLGLDPKTTIKEIIDYLLECKEKEPLPPITVPVSSAPCKTHILSEEKIHLQSLPTPYLHVSDGGKYLQTYGMWILQTPDKKWTNWSIARGMVVDDKHITGLVIEPQHIRQIADSWAAIGKANEIPFALCFGVPPAAILVSSMPIPEGVSESDYVGAILGESVPVVKCETNDLMVPATSEMVFEGTLSLTDTHLEGPFGEMHGYVFKSQGHPCPLYTVKAMSYRDNAILPVSNPGLCTDETHTLIGSLVATEAKELAIESGLPILDAFMPYEAQALWLILKVDLKGLQALKTTPEEFCKKVGDIYFRTKVGFIVHEIILVADDIDIFNFKEVIWAYVTRHTPVADQMAFDDVTSFPLAPFVSQSSRSKTMKGGKCVTNCIFRQQYERSFDYITCNFEKGYPKGLVDKVNENWKRYGYK
# How the values were obtained:
# [1] = tested on: styrene production; assay: Styrene production by FDC1 mutants from tCA (colorimetric screening, confirmed by HPLC); format: cell-based; details: E. coli cells, tCA 1 g/L, 30° C. for 4 hours
# Description: Saturation mutagenesis allows the change of one amino acid to 19 other alternative amino acid residues. […] The codon NNK has 32-fold degeneracy and encodes all 20 amino acids without rare codons. The QuikChange PCR products were examined by agarose gel electrophoresis and then 15 μl of PCR products were digested with 1 μl Dpnl (New England Biolabs) at 37° C. for 4 hours to remove the template plasmid. Aliquots of (2 μl) digestive products were transformed into BL21-Gold (DE3) competent cells (STRATAgene, CA) and inoculated on Luria-Bertani (LB) agar plates containing kanamycin. The quality of the library by DNA sequencing was confirmed. The library covers 90% of mutagenesis (17 mutants out of 19). To cover 100% (19 out of 19 mutant), we screened 150 mutants for each site.
# The transformants (Example II.2) were inoculated in 96-well plates (NUNC, Roskilde, Denmark) containing 100 μl LB broth per well and incubated at 37° C., overnight. The cultures were then mixed with equal amount of 50% glycerol and stored at −80° C. as the master plate. An aliquot of 10 μl culture was inoculated in 2 ml deep-well plates (USA scientific) with 1 ml TB broth per well and incubated at 37° C. until the OD600 reached 1.0. The cultures were then induced by 0.2 mM IPTG and incubated at 18° C. for 20 hours with shaking at 250 rpm.
# Cells were harvested and suspended with 0.25 ml PBS buffer at pH 7.0 and the substrate (tCA) was added at a final concentration of 1 g/L. The culture was incubated at 30° C. for 4 hours and the volatile product styrene was collected by using 96 well STRATA-X® reversed phase plate containing 10 mg polymer based resin (Phenomenex) on top of the culture plate (FIG. 19). To avoid styrene vapor diffusion, 96-square well silicone sealing mats with pre-slit were used between 96-well culture plate and 96 well STRATA-X® reversed phase plate. The product was collected by 200 μl propanol for each well and the amount of product was measured by colorimetric method.
# Various chemicals were tested as an indicator for styrene detection, including NBP (4-nitrobenzyl-pyridine) as a preferred indicator. Styrene was mixed with cytochrome P450 BM-3 in 50 mM phosphate buffer pH 8.0. The styrene oxidation reaction was started by adding 0.2 mM NADPH, and the reaction mixture was incubated at room temperature for 5 minutes with shaking. The NBP solution was added to the mixture and incubated at room temperature for further 5 minutes with shaking which gives white precipitate. The tube or plate containing reaction mixtures were heated at 70° C. for 30 minutes and chilled on ice for 5 minutes. After adding Dimethylformamide (150 μl) and 25 μl of 1M K2CO3, the reaction mixture gave blue color that can be measured spectrophotometrically at 600 nm immediately. The […] of NBP reacts with the oxirane ring of styrene oxide to yield a blue chromophore a blue color that can be monitored spectrophotometrically at 600 nm.
# The mutants showing higher activity were confirmed by HPLC using an ACQUITY UPLC BEH C18 column (1.7-μm, 2.1×50-mm, Waters, USA). The samples were resolved in 30% acetonitrile (A) with an increasing concentration gradient of acetonitrile (B) for 1 min, 95%; then to 1 min, 30%; at a flow rate of 1 ml/min. UV absorption was monitored at 254-, 280-, and 310-nm. The changed amino acid residues in the mutants showing the higher activity were confirmed by DNA sequence.
# [2] = tested on: styrene production; assay: Production of styrene from trans-cinnamic acid in E. coli BL-21 (DE3); format: cell-based; details: fed 0.1% trans-cinnamic acid, 36 hours, STRATA X column
# Description: The nucleotides encoding FDC wild type, FDC mutant (K190E), FDC (WT)-PAL fusion protein, and FDC (K190E)-PAL fusion protein were transformed in E. coli BL-21 (DE3). The cells were grown in LB at 30° C. for overnight. The cells were harvested and washed with M9 media. The cells were inoculated to 2.0 ml M9 media with the initial OD600 at 0.3 and were cultured at 30° C. until the OD600 of the culture reached to 0.6 to 0.8. The cells were then induced with 0.2 mM IPTG for 8.0 hours at 30° C. The cells transformed with FDC wild type and FDC (K190E) were fed with 0.1% trans-cinnamic acid. The cells transformed with FDC (WT)-PAL and FDC (K190E)-PAL fusion proteins were fed with either 0.1% trans-cinnamic acid or 0.1% L-phenylalanine. The fed cells were continuously cultured for 36 hours. STRATA X column was used to collect styrene. The product was eluted from the column by butanol and the amount was quantified by HPLC.
molecule,measurement,setting,value
B1,amount of styrene compared to that of wild type (in words),[1],significantly higher amount of styrene
same,styrene produced compared to wild type,[1],3 times
same,styrene produced,[2],758 mg/L
